We go through one molecule from patent US20080318868A1.

The target of assay [1] is CS40 anti-ManLAM monoclonal antibody. Description: competitive ELISA, ManLAM-coated plate, CS40 (1:2000) mixed with peptide; at 50 µg/ml peptide. (In general: In an ELISA, binding on a coated surface is turned into a signal by an enzyme label.)
For assay [2] the target is unchanged. Description: competitive ELISA, ManLAM-coated plate, CS40 (1:2000) mixed with peptide.

As to ISLTEWSMWYRH [B11 synthetic peptide], the decrease in OD (inhibition of CS40 binding to ManLAM) in assay [1] was found to be 100%. This molecule also gave a peptide concentration giving 100% decrease in OD in assay [2] of 50 µg/mL.
